The values below come from patent EP2161338A1.

Assay [1] has as its target DNAX Leukocyte Associated Immunoglobulin-like Receptor (DLAIR-1), the DX26 antigen, product of the YE01 gene (human) (UniProt Q6GTX8). In words: flow cytometry on HUT78 T cell tumor cells, PE goat-anti-mouse-IgG second step. In general terms: Flow cytometry measures light scatter and fluorescence of single cells or particles in a stream.
Assay [2] shares this target. Description: flow cytometry on CEM T cell tumor cells, PE goat-anti-mouse-IgG second step.
Assay [3] shares this target. In words: flow cytometry on Peer T cell tumor cells, PE goat-anti-mouse-IgG second step.
Assay [4] has the same target. In words: flow cytometry on Molt4 T cell tumor cells, PE goat-anti-mouse-IgG second step.
Assay [5] shares this target. In words: flow cytometry on HL60 promyeloid tumor cells, PE goat-anti-mouse-IgG second step.
The target is the same in assay [6]. Description: flow cytometry on U937 myeloid tumor cells, PE goat-anti-mouse-IgG second step.
For assay [7] the target is unchanged. In words: flow cytometry on Jurkat T cell tumor cells, PE goat-anti-mouse-IgG second step.
Assay [8] has the same target. Description: flow cytometry on Molt4 T cell tumor cells (DLAIR-positive), PE goat-anti-mouse-IgG second step.
Assay [9] shares this target. Description: flow cytometry on HL60 promyeloid tumor cells (DLAIR-positive), PE goat-anti-mouse-IgG second step.
For assay [10] the target is unchanged. In words: flow cytometry on Peer T cell tumor cells (DLAIR-positive), PE goat-anti-mouse-IgG second step.
The target is the same in assay [11]. In words: flow cytometry on Jurkat T cell tumor cells (DLAIR-positive), PE goat-anti-mouse-IgG second step.
Assay [12] shares this target. Description: flow cytometry on CEM T cell tumor cells (DLAIR-positive), PE goat-anti-mouse-IgG second step.
For assay [13] the target is unchanged. Description: flow cytometry on U937 myeloid tumor cells (DLAIR-positive), PE goat-anti-mouse-IgG second step.

DX26 monoclonal antibody: the mean fluorescence intensity (mean fluorescence intensity) was 25.8 in assay [1]; 92.7 in assay [2]; 29.1 in [3]; 30.7 in [4]; 46.9 in assay [5]; 49.5 in assay [6]. The substance further displayed a mean fluorescence intensity (mean fluorescence intensity) in assay [7] of 47.1.
Consider control IgG1 (antibody), for which the mean fluorescence intensity (mean fluorescence intensity) in assay [8], in assay [9], in assay [10], in assay [11], in assay [12] and in assay [13] was < 5 each time.
